The values below come from ChEMBL document CHEMBL2074013, “Effect of 17 beta-estradiol-D-17 beta-glucuronide on the rat organic anion transporting polypeptide 2-mediated transport differs depending on substrates” (Drug Metab Dispos, 2002).

Substrate in the series: C[C@H]1O[C@@H](O[C@H]2[C@@H](O)C[C@H](O[C@H]3[C@@H](O)C[C@H](O[C@H]4CC[C@@]5(C)[C@H](CC[C@@H]6[C@@H]5C[C@@H](O)[C@]5(C)[C@@H](C7=CC(=O)OC7)CC[C@]65O)C4)O[C@@H]3C)O[C@@H]2C)C[C@H](O)[C@@H]1O
The series can be described thus: cells, lysate or membranes named.

Description: TP_TRANSPORTER: uptake in Oatp2-expressing LLC-PK1 cells

B1: Solute carrier organic anion transporter family member 1A4 (Rattus norvegicus) (protein)
chain: MGKSEKRVATHGVRCFAKIKMFLLALTCAYVSKSLSGTYMNSMLTQIERQFGIPTSIVGLINGSFEIGNLLLIIFVSYFGTKLHRPIMIGVGCAVMGLGCFLISLPHFLMGQYEYETILPTSNVSSNSFFCVENRSQTLNPTQDPSECVKEMKSLMWIYVLVGNIIRGIGETPIMPLGISYIEDFAKSENSPLYIGILETGMTIGPLIGLLLASSCANIYVDIESVNTDDLTITPTDTRWVGAWWIGFLVCAGVNILTSFPFFFFPKTLPKEGLQENVDGTENAKEKKHRKKAKEEKRGITKDFFVFMKSLSCNPIYMLFILISVLQFNAFINSFTFMPKYLEQQYGKSTAEVVFLMGLYMLPPICLGYLIGGLIMKKFKVTVKKAAHLAFWLCLSEYLLSFLSYVMTCDNFPVAGLTTSYEGVQHQLYVENKVLADCNTRCNCSTNTWDPVCGDNGLAYMSACLAGCEKSVGTGTNMVFQNCSCIQSSGNSSAVLGLCNKGPDCANKLQYFLIIAIFGCFIYSLAGIPGYMVLLRCIKSEEKSLGVGLHAFCIRILAGIPAPIYFGALIDRTCLHWGTLKCGEPGACRMYDINSFRRLYLGLPAALRGASFVPAFFILRLTRTFQFPGDIESSKTDHAEMKLTLKESECTEVLRSKVTED
The term Km denotes the concentration of substrate that gives half-maximal velocity. Turning to B1, the Michaelis constant (Km) amounted to 1.07 µM.
